PMC3156243, “Properties and Crystal Structure of Methylenetetrahydrofolate Reductase from Thermus thermophilus HB8” (PLoS ONE, 2011)

Target: the molecule itself
Assay: SEC-MALS; as-purified MTHFR; HPLC on TSK-gel G3000SWxl with multi-angle light scattering and refractive index detectors; 50 mM Tris-HCl pH 6.8, 0.2 M NaCl; 0.5 ml/min; 0.1 mg protein/run

B1: Methylenetetrahydrofolate reductase (MTHFR) from Thermus thermophilus HB8, C-terminally hexa-His-tagged wildtype (enzyme, UniProt Q5SLG6 1-296, looked up)
chain: MKIRDLLKARRGPLFSFEFFPPKDPEGEEALFRTLEELKAFRPAFVSITYGAMGSTRERSVAWAQRIQSLGLNPLAHLTVAGQSRKEVAEVLHRFVESGVENLLALRGDPPRGERVFRPHPEGFRYAAELVALIRERYGDRVSVGGAAYPEGHPESESLEADLRHFKAKVEAGLDFAITQLFFNNAHYFGFLERARRAGIGIPILPGIMPVTSYRQLRRFTEVCGASIPGPLLAKLERHQDDPKAVLEIGVEHAVRQVAELLEAGVEGVHFYTLNKSPATRMVLERLGLRPASGQP
notes: Methylenetetrahydrofolate reductase (MetF homologue) of Thermus thermophilus HB8, clone TTHA0327, wildtype gene amplified by PCR into pET23; the original stop codon was mutated to Ala before the C-terminal hexa-His tag; One polypeptide in two cofactor states: as purified about one FAD per dimer (apo- plus holo-subunit), after FAD treatment one FAD per subunit; The stop codon is replaced by Ala, …
- stoichiometry N: 2
